In paper PMC4789280, “Characterisation of the broad substrate specificity 2-keto acid decarboxylase Aro10p of Saccharomyces kudriavzevii and its implication in aroma development” (Microbial Cell Factories, 2016):

B1: SkAro10p (Saccharomyces kudriavzevii IFO 1802) (protein)
chain: MTPVTINTFVNQKEPHLVSNELATISFGEYIFRRLLSTGTKSVFGVPGDFNLSLLEYLYAPSVESAGLKWIGTCNELNAAYAADGYSRYSNNIGCLVTTFGVGELSALNGVAGSFAENVKVLHIVGVAKSIDSRSDNFRDRNMHHLVPQLHGSNFKGPNHKVYHDMVKDRVACSVAYLEDIETACDQVDNVIRDIYKYSKPGYIFVPADFADMSVTCENLINVPHISQQDCITYPSQIQLFDILDRITSWMYSSKTPAILGDVLTDRYGVSEILNKLIYATGIWNFSTVMGKSVIDEANPKYMGQYNGKEGLRQVYEHFESCDLVLHFGVDINEINNGHYTFTYKPNAKIIQFHPNYIRFVDTKYGHEQMFEGINFAPVLMELYKGIDVSRLSLQYDSGVTSYTNETMQLEDPTNDQSNNITQVHLQKVMPKFLSPGDVVVCETGSFQFSVRDFAFPTQLKYISQGFFLSIGMALPAALGVGIAMQDFPNAHISDENIGEGYKPRLILFEGDGAAQMTIQELSTILKCHITIDIFIWNNNGYTIERAIMGPTRAYNDVMSWKWTKLLEAFGDFDRKHTNSTVIEYPSKLAMKLEELKSSNTRDGIELVEVKLGVLDFPEQLKCMVDAAALKRNKK
notes: full-length ARO10 allele on plasmid pG-SkARO10-kX (pGREG526); expressed in S. cerevisiae CEN.PK 711-7C pdc1 pdc5 pdc6 aro10 thi3 null; cell extract
B2: ScAro10p (Saccharomyces cerevisiae S288C) (protein)
chain: MAPVTIEKFVNQEERHLVSNRSATIPFGEYIFKRLLSIDTKSVFGVPGDFNLSLLEYLYSPSVESAGLRWVGTCNELNAAYAADGYSRYSNKIGCLITTYGVGELSALNGIAGSFAENVKVLHIVGVAKSIDSRSSNFSDRNLHHLVPQLHDSNFKGPNHKVYHDMVKDRVACSVAYLEDIETACDQVDNVIRDIYKYSKPGYIFVPADFADMSVTCDNLVNVPRISQQDCIVYPSENQLSDIINKITSWIYSSKTPAILGDVLTDRYGVSNFLNKLICKTGIWNFSTVMGKSVIDESNPTYMGQYNGKEGLKQVYEHFELCDLVLHFGVDINEINNGHYTFTYKPNAKIIQFHPNYIRLVDTRQGNEQMFKGINFAPILKELYKRIDVSKLSLQYDSNVTQYTNETMRLEDPTNGQSSIITQVHLQKTMPKFLNPGDVVVCETGSFQFSVRDFAFPSQLKYISQGFFLSIGMALPAALGVGIAMQDHSNAHINGGNVKEDYKPRLILFEGDGAAQMTIQELSTILKCNIPLEVIIWNNNGYTIERAIMGPTRSYNDVMSWKWTKLFEAFGDFDGKYTNSTLIQCPSKLALKLEELKNSNKRSGIELLEVKLGELDFPEQLKCMVEAAALKRNKK

Columns and labels:
[1] = substrate: O=C(O)C(=O)Cc1ccccc1; assay: decarboxylase activity, cell extract of decarboxylase-null yeast, Michaelis-Menten; type: biochemical, Saccharomyces kudriavzevii; details: cell extract from aerobic ethanol-limited chemostat culture, phenylalanine as nitrogen source
[2] = substrate: O=C(O)C(=O)Cc1ccccc1; assay: cells, lysate or membranes; details: cell extract from aerobic ethanol-limited chemostat culture, phenylalanine as nitrogen source

Protein	Km [1] [µM]	Km [2] [µM]
B1	70 ± 5	
B2		150 ± 10
